Data published in US20140274782A1, “AFFINITY REAGENTS AND METHODS FOR DETECTION, PURIFICATION, AND PROTEOMIC ANALYSIS OF METHYLATED PROTEINS” (The Board of Trustees of the Leland Stanford Junior …, priority 2013, published 2014).

T1: G9a and GLP (Homo sapiens, UniProt Q96KQ7+Q9H9B1)
T1 sequence (Q96KQ7 2-1210 limits assumed): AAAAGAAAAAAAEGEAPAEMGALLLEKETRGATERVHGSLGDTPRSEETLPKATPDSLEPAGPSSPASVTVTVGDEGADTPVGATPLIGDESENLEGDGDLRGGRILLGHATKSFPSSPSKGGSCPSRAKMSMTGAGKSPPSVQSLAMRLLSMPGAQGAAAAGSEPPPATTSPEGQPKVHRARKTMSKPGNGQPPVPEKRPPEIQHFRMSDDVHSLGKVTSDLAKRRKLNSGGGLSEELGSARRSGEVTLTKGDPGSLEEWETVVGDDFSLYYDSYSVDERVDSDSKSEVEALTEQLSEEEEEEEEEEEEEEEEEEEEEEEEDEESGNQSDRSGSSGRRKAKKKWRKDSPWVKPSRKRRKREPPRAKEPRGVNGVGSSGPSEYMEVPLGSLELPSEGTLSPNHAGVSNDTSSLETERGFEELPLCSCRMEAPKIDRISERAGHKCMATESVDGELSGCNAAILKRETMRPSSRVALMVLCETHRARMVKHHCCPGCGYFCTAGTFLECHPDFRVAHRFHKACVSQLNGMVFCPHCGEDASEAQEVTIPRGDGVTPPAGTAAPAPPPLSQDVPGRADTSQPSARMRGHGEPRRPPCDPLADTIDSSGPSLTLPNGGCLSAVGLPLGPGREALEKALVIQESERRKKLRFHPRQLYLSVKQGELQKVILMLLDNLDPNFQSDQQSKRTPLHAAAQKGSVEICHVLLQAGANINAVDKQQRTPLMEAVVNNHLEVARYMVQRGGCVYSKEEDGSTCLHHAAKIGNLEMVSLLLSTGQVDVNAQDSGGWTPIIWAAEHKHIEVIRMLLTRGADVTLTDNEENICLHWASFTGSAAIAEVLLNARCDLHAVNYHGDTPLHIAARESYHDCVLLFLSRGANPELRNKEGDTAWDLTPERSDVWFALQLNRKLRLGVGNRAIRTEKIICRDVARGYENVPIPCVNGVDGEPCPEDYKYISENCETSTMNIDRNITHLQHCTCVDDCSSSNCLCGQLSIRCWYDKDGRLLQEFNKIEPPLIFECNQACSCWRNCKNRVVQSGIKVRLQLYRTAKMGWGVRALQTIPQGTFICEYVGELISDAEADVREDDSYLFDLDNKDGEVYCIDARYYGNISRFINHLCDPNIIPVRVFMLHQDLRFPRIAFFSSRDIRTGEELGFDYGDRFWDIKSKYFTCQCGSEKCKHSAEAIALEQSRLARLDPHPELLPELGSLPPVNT
T1 sequence (Q9H9B1 2-1298 limits assumed): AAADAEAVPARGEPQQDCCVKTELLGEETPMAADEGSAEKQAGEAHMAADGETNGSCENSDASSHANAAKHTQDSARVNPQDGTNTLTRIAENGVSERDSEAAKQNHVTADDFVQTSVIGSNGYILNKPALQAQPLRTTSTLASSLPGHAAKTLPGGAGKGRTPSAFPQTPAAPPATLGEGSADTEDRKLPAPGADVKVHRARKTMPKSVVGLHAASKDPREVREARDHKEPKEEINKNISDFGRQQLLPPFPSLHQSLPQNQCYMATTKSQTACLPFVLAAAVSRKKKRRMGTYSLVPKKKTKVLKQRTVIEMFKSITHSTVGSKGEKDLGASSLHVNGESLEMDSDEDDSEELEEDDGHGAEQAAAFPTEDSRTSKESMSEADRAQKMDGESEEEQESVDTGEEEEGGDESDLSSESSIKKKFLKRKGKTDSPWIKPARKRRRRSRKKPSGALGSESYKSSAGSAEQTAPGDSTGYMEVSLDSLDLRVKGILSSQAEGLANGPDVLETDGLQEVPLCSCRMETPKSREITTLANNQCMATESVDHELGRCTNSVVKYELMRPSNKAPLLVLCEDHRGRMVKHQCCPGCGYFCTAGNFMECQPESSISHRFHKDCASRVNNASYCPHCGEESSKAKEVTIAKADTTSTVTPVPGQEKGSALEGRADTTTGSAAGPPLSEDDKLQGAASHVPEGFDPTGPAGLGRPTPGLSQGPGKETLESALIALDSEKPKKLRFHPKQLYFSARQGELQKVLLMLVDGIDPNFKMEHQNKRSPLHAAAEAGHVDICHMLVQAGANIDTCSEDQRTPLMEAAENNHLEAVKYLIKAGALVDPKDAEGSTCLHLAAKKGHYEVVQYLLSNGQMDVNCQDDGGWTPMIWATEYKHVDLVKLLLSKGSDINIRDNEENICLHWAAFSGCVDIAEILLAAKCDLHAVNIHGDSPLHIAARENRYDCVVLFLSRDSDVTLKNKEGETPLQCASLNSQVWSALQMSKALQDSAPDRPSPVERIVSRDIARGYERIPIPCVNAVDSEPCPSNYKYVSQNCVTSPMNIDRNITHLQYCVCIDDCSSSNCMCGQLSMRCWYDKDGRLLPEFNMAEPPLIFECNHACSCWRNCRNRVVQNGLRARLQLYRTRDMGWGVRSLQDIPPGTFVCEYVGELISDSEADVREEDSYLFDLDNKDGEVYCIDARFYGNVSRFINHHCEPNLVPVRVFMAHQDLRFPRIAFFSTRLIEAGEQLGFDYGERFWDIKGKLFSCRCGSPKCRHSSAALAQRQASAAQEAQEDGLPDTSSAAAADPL

B1: TUBA1C (protein, UniProt Q9BQE3 1-449, looked up)
Tubulin alpha-1C chain: MRECISIHVGQAGVQIGNACWELYCLEHGIQPDGQMPSDKTIGGGDDSFNTFFSETGAGKHVPRAVFVDLEPTVIDEVRTGTYRQLFHPEQLITGKEDAANNYARGHYTIGKEIIDLVLDRIRKLADQCTGLQGFLVFHSFGGGTGSGFTSLLMERLSVDYGKKSKLEFSIYPAPQVSTAVVEPYNSILTTHTTLEHSDCAFMVDNEAIYDICRRNLDIERPTYTNLNRLISQIVSSITASLRFDGALNVDLTEFQTNLVPYPRIHFPLATYAPVISAEKAYHEQLTVAEITNACFEPANQMVKCDPRHGKYMACCLLYRGDVVPKDVNAAIATIKTKRTIQFVDWCPTGFKVGINYQPPTVVPGGDLAKVQRAVCMLSNTTAVAEAWARLDHKFDLMYAKRAFVHWYVGEGMEEGEFSEAREDMAALEKDYEEVGADSADGEDEGEEY
B2: CKAP2 (protein, UniProt Q8WWK9 1-683, looked up)
Cytoskeleton-associated …: MSTPAVPQDLQLPPSQRAQSAFKEQRRQKLKEHLLRRKTLFAYKQENEMLSSSRDQRVVTSEDQVQEGTKVLKLKTKMADKENMKRPAESKNNTVVGKHCIPLKPSNELTNSTVVIDTHKPKDSNQTPHLLLTEDDPQSQHMTLSQAFHLKNNSKKKQMTTEKQKQDANMPKKPVLGSYRGQIVQSKINSFRKPLQVKDESSAATKKLSATIPKATKPQPVNTSSVTVKSNRSSNMTATTKFVSTTSQNTQLVRPPIRSHHSNTRDTVKQGISRTSANVTIRKGPHEKELLQSKTALSSVKTSSSQGIIRNKTLSRSIASEVIARPASLSNDKLMEKSEPVDQRRHTAGKAIVDSRSAQPKETSEERKARLSEWKAGKGRVLKRPPNSVVTQHEPAGQNEKPVGSFWTTMAEEDEQRLFTEKVNNTFSECLNLINEGCPKEDILVTLNDLIKNIPDAKKLVKYWICLALIEPITSPIENIIAIYEKAILAGAQPIEEMRHTIVDILTMKSQEKANLGENMEKSCASKEEVKEVSIEDTGVDVDPEKLEMESKLHRNLLFQDCEKEQDNKTKDPTHDVKTPNTETRTSCLIKYNVSTTPYLQSVKKKVQFDGTNSAFKELKFLTPVRRSRRLQEKTSKLPDMLKDHYPCVSSLEQLTELGRETDAFVCRPNAALCRVYYEADTT
B3: TRIM28 (protein, UniProt Q13263 2-835, looked up)
Transcription intermediary …: AASAAAASAAAASAASGSPGPGEGSAGGEKRSTAPSAAASASASAAASSPAGGGAEALELLEHCGVCRERLRPEREPRLLPCLHSACSACLGPAAPAAANSSGDGGAAGDGTVVDCPVCKQQCFSKDIVENYFMRDSGSKAATDAQDANQCCTSCEDNAPATSYCVECSEPLCETCVEAHQRVKYTKDHTVRSTGPAKSRDGERTVYCNVHKHEPLVLFCESCDTLTCRDCQLNAHKDHQYQFLEDAVRNQRKLLASLVKRLGDKHATLQKSTKEVRSSIRQVSDVQKRVQVDVKMAILQIMKELNKRGRVLVNDAQKVTEGQQERLERQHWTMTKIQKHQEHILRFASWALESDNNTALLLSKKLIYFQLHRALKMIVDPVEPHGEMKFQWDLNAWTKSAEAFGKIVAERPGTNSTGPAPMAPPRAPGPLSKQGSGSSQPMEVQEGYGFGSGDDPYSSAEPHVSGVKRSRSGEGEVSGLMRKVPRVSLERLDLDLTADSQPPVFKVFPGSTTEDYNLIVIERGAAAAATGQPGTAPAGTPGAPPLAGMAIVKEEETEAAIGAPPTATEGPETKPVLMALAEGPGAEGPRLASPSGSTSSGLEVVAPEGTSAPGGGPGTLDDSATICRVCQKPGDLVMCNQCEFCFHLDCHLPALQDVPGEEWSCSLCHVLPDLKEEDGSLSLDGADSTGVVAKLSPANQRKCERVLLALFCHEPCRPLHQLATDSTFSLDQPGGTLDLTLIRARLQEKLSPPYSSPQEFAQDVGRMFKQFNKLTEDKADVQSIIGLQRFFETRMNEAFGDTKFSAVLVEPPPMSLPGAGLSSQELSGGPGDGP
B4: TK1 (protein, UniProt P04183 2-234, looked up)
Thymidine kinase, cytosolic: SCINLPTVLPGSPSKTRGQIQVILGPMFSGKSTELMRRVRRFQIAQYKCLVIKYAKDTRYSSSFCTHDRNTMEALPACLLRDVAQEALGVAVIGIDEGQFFPDIVEFCEAMANAGKTVIVAALDGTFQRKPFGAILNLVPLAESVVKLTAVCMECFREAAYTKRLGTEKEVEVIGGADKYHSVCRLCYFKKASGQPAGPDNKENCPVPGKPGEAVAARKLFAPQQILQCSPAN
B5: NOSIP (protein, UniProt Q9Y314 1-301, looked up)
Nitric oxide …: MTRHGKNCTAGAVYTYHEKKKDTAASGYGTQNIRLSRDAVKDFDCCCLSLQPCHDPVVTPDGYLYEREAILEYILHQKKEIARQMKAYEKQRGTRREEQKELQRAASQDHVRGFLEKESAIVSRPLNPFTAKALSGTSPDDVQPGPSVGPPSKDKDKVLPSFWIPSLTPEAKATKLEKPSRTVTCPMSGKPLRMSDLTPVHFTPLDSSVDRVGLITRSERYVCAVTRDSLSNATPCAVLRPSGAVVTLECVEKLIRKDMVDPVTGDKLTDRDIIVLQRGGTGFAGSGVKLQAEKSRPVMQA

system: 3×MBT domain of L3MBTL1; experiment: Triple SILAC pull-down, 3xMBT/3xMBTD355N ratio (cytoplasmic, nuclear and chromatin fractions of 293T cells); assay type: binding, human; conditions: SILAC ratio 3xMBT vs 3xMBTD355N pull-down, 293T cells; experiment with UNC0638 in heavy SILAC media; all values in log base 2;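 note: proteins quantified with MaxQuant, requiring at least two unique peptides and quantification in both label directions, normalized to the mean of proteins from a digested loading control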

Molecule	3xMBT/D355N UNC Heavy [log base 2]
B1	0.42
B2	−1.81
B3	1.05
B4	2.89
B5	1.54

same assay, conditions: SILAC ratio 3xMBT vs 3xMBTD355N pull-down, 293T cells; experiment with UNC0638 in light SILAC media; all values in log base 2

Molecule	3xMBT/D355N UNC Light [log base 2]
B1	1.45
B2	−1.33
B3	1.28
B4	2.36
B5	2.28

target: T1, G9a and GLP; experiment: Triple SILAC pull-down after UNC0638 treatment of 293T cells, DMSO/UNC0638 ratio of protein captured by 3×MBT; assay type: cell-based; set-up: cells were treated for 24 hours with UNC0638 at 2.5 μM or DMSO vehicle control; endogenous in cells; host or cells: HEK 293T; conditions: SILAC ratio DMSO relative to UNC0638, pull-down with 3xMBT; UNC0638 in heavy SILAC media; all values in log base 2;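 note: mass spectrometry (Q-Exactive) SILAC quantitation, DMSO/UNC0638 ratio computed after subtracting 3×MBTD355N mutant pull-down background, only proteins with at least twofold 3×MBT over mutant signal considered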

Relative to UNC0638 UNC Heavy [log base 2]	Molecule
−0.83	B1
−0.12	B2
0.01	B3
0.63	B4
0.03	B5

same assay, conditions: SILAC ratio DMSO relative to UNC0638, pull-down with 3xMBT; UNC0638 in light SILAC media; all values in log base 2

Relative to UNC0638 UNC Light [log base 2]	Molecule
0.93	B1
0.05	B2
0.10	B3
−0.50	B4
−0.11	B5

same assay, conditions: average of UNC Light and UNC Heavy experiments; all values in log base 2

Relative to UNC0638 Average [log base 2]	Molecule
0.05	B1
−0.03	B2
0.06	B3
0.07	B4
−0.04	B5
